Measurements as given in publication PMC5342555, “ATAD2 is an epigenetic reader of newly synthesized histone marks during DNA replication” (Oncotarget, 2016).
Changes are numbered by the printed parent chain. Names may count otherwise.

B1: WT: TagGFP-tagged WT ATAD2 expressed in MCF7 cells (protein)
chain: MVVLRSSLELHNHSAASATGSLDLSSDFLSLEHIGRRRLRSAGAAQKKPAATTAKAGDGSSVKEVETYHRTRALRSLRKDAQNSSDSSFEKNVEITEQLANGRHFTRQLARQQADKKKEEHREDKVIPVTRSLRARNIVQSTEHLHEDNGDVEVRRSCRIRSRYSGVNQSMLFDKLITNTAEAVLQKMDDMKKMRRQRMRELEDLGVFNETEESNLNMYTRGKQKDIQRTDEETTDNQEGSVESSEEGEDQEHEDDGEDEDDEDDDDDDDDDDDDDDEDDEDEEDGEEENQKRYYLRQRKATVYYQAPLEKPRHQRKPNIFYSGPASPARPRYRLSSAGPRSPYCKRMNRRRHAIHSSDSTSSSSSEDEQHFERRRKRSRNRAINRCLPLNFRKDELKGIYKDRMKIGASLADVDPMQLDSSVRFDSVGGLSNHIAALKEMVVFPLLYPEVFEKFKIQPPRGCLFYGPPGTGKTLVARALANECSQGDKRVAFFMRKGADCLSKWVGESERQLRLLFDQAYQMRPSIIFFDEIDGLAPVRSSRQDQIHSSIVSTLLALMDGLDSRGEIVVIGATNRLDSIDPALRRPGRFDREFLFSLPDKEARKEILKIHTRDWNPKPLDTFLEELAENCVGYCGADIKSICAEAALCALRRRYPQIYTTSEKLQLDLSSINISAKDFEVAMQKMIPASQRAVTSPGQALSTVVKPLLQNTVDKILEALQRVFPHAEFRTNKTLDSDISCPLLESDLAYSDDDVPSVYENGLSQKSSHKAKDNFNFLHLNRNACYQPMSFRPRILIVGEPGFGQGSHLAPAVIHALEKFTVYTLDIPVLFGVSTTSPEETCAQVIREAKRTAPSIVYVPHIHVWWEIVGPTLKATFTTLLQNIPSFAPVLLLATSDKPHSALPEEVQELFIRDYGEIFNVQLPDKEERTKFFEDLILKQAAKPPISKKKAVLQALEVLPVAPPPEPRSLTAEEVKRLEEQEEDTFRELRIFLRNVTHRLAIDKRFRVFTKPVDPDEVPDYVTVIKQPMDLSSVISKIDLHKYLTVKDYLRDIDLICSNALEYNPDRDPGDRLIRHRACALRDTAYAIIKEELDEDFEQLCEEIQESRKKRGCSSSKYAPSYYHVMPKQNSTLVGDKRSDPEQNEKLKTPSTPVACSTPAQLKRKIRKKSNWYLGTIKKRRKISQAKDDSQNAIDHKIESDTEETQDTSVDHNETGNTGESSVEENEKQQNASESKLELRNNSNTCNIENELEDSRKTTACTELRDKIACNGDASSSQIIHISDENEGKEMCVLRMTRARRSQVEQQQLITVEKALAILSQPTPSLVVDHERLKNLLKTVVKKSQNYNIFQLENLYAVISQCIYRHRKDHDKTSLIQKMEQEVENFSCSR
modifications: left off: tagGFP, end not stated, kept
notes: TagGFP-tagged WT ATAD2 expressed in MCF7 cells
B2: BD mut: TagGFP-tagged BD mutant ATAD2 (V1013A, Y1021A, Y1063A, I1074A) expressed in MCF7 cells (protein, UniProt Q6PL18 1-1390, looked up, variant V1013A Y1021A Y1063A I1074A)
ATPase family AAA …: B1 chain with V1013A, Y1021A, Y1063A, I1074A
modifications: TagGFP tag
notes: TagGFP-tagged BD mutant ATAD2 (V1013A, Y1021A, Y1063A, I1074A) expressed in MCF7 cells
B3: ATPase mut: TagGFP-tagged ATPase mutant ATAD2 (K473T, E532Q) expressed in MCF7 cells (protein)
chain: B1 chain with K473T, E532Q
modifications: left off: tagGFP, end not stated, kept
notes: TagGFP-tagged ATPase mutant ATAD2 (K473T, E532Q) expressed in MCF7 cells

The molecules below were run on MCF7 cells (assay: Fluorescence recovery after photobleaching (FRAP)). Settings: TagGFP-tagged ATAD2 in MCF7, FRAP, 20 images; mean ± SEM.
Format: cell-based
Description: Immunofluorescence of cells were saved for whole cell extract and the rest was subjected for subsequent fractionation. Whole cell extract
Cells were grown on Matrigel-coated coverslips and was prepared by incubating cells in ice-cold RIPA buffer fixed in 4 % formaldehyde in PBS for 15 min at RT or in (25 mM Tris·HCl pH 7.6, 150 mM NaCl, 1 % NP-40, 1 100 % methanol for 7 min at -20 °C. After removing the % sodium deoxycholate, 0.1 % SDS) supplemented with residual FA or methanol by washing in PBS cells were protease inhibitor cocktail (Roche) for 10 min on ice and permeabilized in blocking solution (10 % goat serum sonicated at medium power, 0.5 intervals in BIORUPTOR and 0.3 % Triton X-100 in PBS) for 10 min at RT and for 3 min at 4 °C. Soluble lysate was recovered by incubated with primary antibodies in blocking solution. removing insoluble fractions after centrifugation at 20000 Following the removal of unbound antibodies by washing x g for 10 min 5 to 20 μg of lysates were used for SDS gel in PBS cells were incubated with secondary antibodies electrophoresis and Western blot. conjugated with Alexa Fluor 488, 555 or 647 (Invitrogen), washed and mounted on slides in presence of DAPI for Fluorescence recovery after photobleaching visualization of nucleus. Images were acquired using an (FRAP) inverted Zeiss LSM700 confocal microscope using a 488 nm Diode-Pumped Solid State Laser with a 63X, 1.3 N.A. FRAP experiment was performed as previously oil-immersion objective. For EdU labelling cells were described with minor modifications. […]
and fixed in 2 % FA for 10 min at RT. […] The image series were imported in Fiji and 100 % MeOH for 10 min at – 20 °C and incubated in average fluorescence was in the bleached region (F(t)ROI), stain buffer with 5 % normal goat serum for 10 min at the total cell nucleus (F(t)total) and a background (F(t)BG) RT for blocking. Then indirect staining was performed were determined. The relative fluorescence intensity

| Molecule | half recovery time (recovery t1/2) [s] |
| --- | --- |
| B1 | 17.740 |
| B2 | 7.951 |
| B3 | 2.514 |

What follows are molecules tested on MCF7 cells (assay: EdU incorporation (DNA replication) by flow cytometry). Settings: MCF7 overexpressing tagGFP-tagged ATAD2, gated by tagGFP; mean ± SEM, n = 3 independent experiments.
Format: cell-based
Description: informed consent was obtained (Indivumed, Hamburg, by incubating cells with primary antibodies for 1 h at Germany; Asterand, Detroit USA; Provitro Berlin, RT followed by labelling with secondary antibodies Germany) of different indications. Immunohistochemistry conjugated with Alexa488 or Alexa647 for 30 min at was performed using EnVision System-HRP (DAB) from RT in dark. For analysis of TagGFP-ATAD2 expressing Dako (K4006 and K4010). Prior to immunostaining the cells GFP was stained by GFP antibody to enhance the slides were deparaffinized and rehydrated in xylene and fluorescence signal. DNA was stained by DAPI at 1 μg/ graded ethanol to distilled water. Antigen was retrieved by ml for 10 min at RT. For EdU (5-ethynyl-2'-deoxyuridine) incubating the tissue in boiling Target Retrieval Solution labelling cells were incubated in 10 μM EdU for 2h at 37 pH 6.0 (Dako S2031) for 40 min and letting them cool °C prior to fixation and staining was carried out according […]
Peroxidase-Block for 15 min at RT the slides were washed Fluor® 647 Flow Cytometry Assay Kit, ThermoFisher). twice in washing buffer (PBS with 0.05 % Tween 20) and Cells were analyzed by flow cytometry using a BD LSR incubated with primary antibodies in Antibody-Diluent II. All imaging and quantifications were performed using […]
(Dako S2022) for 90 min at RT. […]
Immunofluorescence of cells were saved for whole cell extract and the rest was subjected for subsequent fractionation. Whole cell extract […]
and fixed in 2 % FA for 10 min at RT. […] The image series were imported in Fiji and 100 % MeOH for 10 min at – 20 °C and incubated in average fluorescence was in the bleached region (F(t)ROI), […]

| Molecule | EdU incorporation (normalized to control) |
| --- | --- |
| B1 | 0.75 ± 0.03 |
| B2 | 0.5 ± 0.10 |
| B3 | 0.38 ± 0.09 |
